Experimental data as given in patent US20230265185A1 (NATIONAL RESEARCH COUNCIL OF CANADA, published 2023).

T1: hCD22 fragment Bin 6, IVR6 (aa476-575), displayed on yeast cells (human, UniProt P20273 495-594)
T1 construct: range 476-575; Range is counted on the mature ECD, not on the UniProt entry; on P20273 it would be 495-594 (my arithmetic); also called CD22 Sub-Domain 6; not shown: Aga2-HA display fusion partner of vector pPNL6; MYC tag
T1 sequence (looked up): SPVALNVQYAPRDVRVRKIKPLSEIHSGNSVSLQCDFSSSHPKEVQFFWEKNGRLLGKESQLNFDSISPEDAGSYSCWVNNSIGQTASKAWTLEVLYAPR

T2: hCD22 fragment Bin 7, IVR7 (aa561-668), displayed on yeast cells (human, UniProt P20273 580-687)
T2 construct: range 561-668; Range is counted on the mature ECD, not on the UniProt entry; on P20273 it would be 580-687 (my arithmetic); also called CD22 Sub-Domain 7; not shown: Aga2-HA display fusion partner of vector pPNL6; MYC tag
T2 sequence (looked up): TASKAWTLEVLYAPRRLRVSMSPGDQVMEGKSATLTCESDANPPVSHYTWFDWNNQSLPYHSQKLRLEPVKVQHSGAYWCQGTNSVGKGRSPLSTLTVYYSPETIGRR

T3: hCD22 fragment Bin 1, IVR1 (aa1-135), displayed on yeast cells (human, UniProt P20273 20-154)
T3 construct: range 1-135; Range is counted on the mature ECD, not on the UniProt entry; on P20273 it would be 20-154 (my arithmetic); also called CD22 Sub-Domain 1; not shown: Aga2-HA display fusion partner of vector pPNL6; MYC tag
T3 sequence (looked up): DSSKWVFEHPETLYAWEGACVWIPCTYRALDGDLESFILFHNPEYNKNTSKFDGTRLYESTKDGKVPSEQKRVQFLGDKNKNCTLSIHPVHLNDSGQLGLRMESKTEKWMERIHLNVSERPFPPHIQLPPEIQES

T4: hCD22 fragment Bin 4, IVR4 (aa303-405), displayed on yeast cells (human, UniProt P20273 322-424)
T4 construct: Range is counted on the mature ECD, not on the UniProt entry; on P20273 it would be 322-424 (my arithmetic); also called CD22 Sub-Domain 4; not shown: Aga2-HA display fusion partner of vector pPNL6; MYC tag
T4 sequence (looked up): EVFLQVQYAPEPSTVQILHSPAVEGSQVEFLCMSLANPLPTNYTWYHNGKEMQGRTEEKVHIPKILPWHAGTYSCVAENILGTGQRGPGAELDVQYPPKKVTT

B1: hCD221ug-10 (VHH)
VHH: QVQLVESGGGLVQAGGSLSVSCTASESTFSIMMGWFRQAPGKQREMVAVINSAGSTNYADSAEGRFTISRDLAKKTVSLQMNSLKPEDTAVYYCYVDGYFGQGTQVTVSS
modifications: single biotin at the VHH C-terminal (biotinylation signal sequence)
notes: llama VHH, expressed in E. coli TG1, IMAC purified, monomeric SEC fraction; also called VHH # 23; 5-hCD22 1ug-10
B2: hCD22pas-24 (VHH)
VHH: QVQLVESGGGLVQAGGSLRLSCSASGITSSINSMGWHRQAPGKQRELVASIGRGGSGSTKYADSGKGRFLISRDNNKNILFLEMNSLKPEDTADYYCLEVTTDLSSYWGRGTQVTVSS
modifications: single biotin at the VHH C-terminal (biotinylation signal sequence)
notes: llama VHH, expressed in E. coli TG1, IMAC purified, monomeric SEC fraction; also called VHH # 26; 8-hCD22 pas-24
B3: hCD221ug-36 (VHH)
VHH: EVQLVDSGGGLVQAGGSLRVSCEASGITFSRAAMGWYRQRPGKERERVAVVNSDSSTIYADSVKGRFTISRDNAKNTVYLQMNSLEPEDTAVYYCWSPGFGSYWGQGTQVTVSS
modifications: single biotin at the VHH C-terminal (biotinylation signal sequence)
notes: llama VHH, expressed in E. coli TG1, IMAC purified, monomeric SEC fraction; also called VHH # 22; 4-hCD22 1ug-36
B4: hCD221ug-80 (VHH)
VHH: QVQLVESGGGLVQPGGSLRLSCTFSGFTLDYYVMVWFRQAPGKEREAVSCITSDGVTYYADSVKGRFTISRDNAKNTVYLQMNRVKPEDTAVYYCAVDKPFYDGGIQYTCPVDFDSWGQGAQVTVSS
modifications: single biotin at the VHH C-terminal (biotinylation signal sequence)
notes: llama VHH, expressed in E. coli TG1, IMAC purified, monomeric SEC fraction; also called VHH # 1; 2-hCD22 1ug-80
B5: hCD221ug-13 (VHH)
VHH: QVQLVESGGGLVQAGDSLRLSCAGSGGSFSSVTMAWFRQAPGKDREFVAAITWSSPSTYYADSVKGRFTISRDNAKNTVYLQMNSLKPEDTAVYYCAGGRTGRGTSADTDEYNYWGQGTQVTVSS
modifications: single biotin at the VHH C-terminal (biotinylation signal sequence)
notes: llama VHH, expressed in E. coli TG1, IMAC purified, monomeric SEC fraction; also called VHH # 21; 1-hCD22 1ug-13
B6: hCD221ug-61 (VHH)
VHH: QVQLVESGGGLVQAGGSLRLSCAASMSSFSQYVMYWYRQAPGKQRELVATITSYSNTNYADSVKGRFTISRDNAKSIAYLQMDSLKPEDTAVYYCNAQYGSTFIRNHWDDWGQGTQVTVSS
modifications: single biotin at the VHH C-terminal (biotinylation signal sequence)
notes: llama VHH, expressed in E. coli TG1, IMAC purified, monomeric SEC fraction; also called VHH # 14; 3-hCD22 1ug-61
B7: hCD22pas-64 (VHH)
VHH: QVQLVESGGGLVQAGGSLRLSCAASGSTFSLNTMAWYRQAPGNQREYVAAASSDGYTNYADSVRGRFTISRDNDKNTMYLQMNSLRPEDTAVYYCTWGTGRFADYIYWGQGTQVTVSS
modifications: single biotin at the VHH C-terminal (biotinylation signal sequence)
notes: llama VHH, expressed in E. coli TG1, IMAC purified, monomeric SEC fraction; also called VHH # 25; 7-hCD22 pas-64

How the values were obtained:
[1] = biological target: T1, hCD22 fragment Bin 6, IVR6 (aa476-575), …; assay: yeast display cell ELISA
Experimental: (§1) The YSD vector (pPNL6) was from The Pacific Northwest National Laboratory, USA. […] The HRP activity was assayed with substrate TMB (tetramethyl benzidine) according to the manufacture’s conditions and read at OD₄₅₀.
(§2) The wells that gave rise to OD₄₅₀ above 0.25 were highlighted, indicating significant antibody-antigen interactions. All the sdAbs tested except hCd22_1ug-14 were assigned to specific Bin(s).

[2] = biological target: T2, hCD22 fragment Bin 7, IVR7 (aa561-668), …; assay: yeast display cell ELISA, biotinylated sdAb 250 nM
Experimental: as §1, §2

[3] = biological target: T2, hCD22 fragment Bin 7, IVR7 (aa561-668), …; assay: yeast display cell ELISA, heat denatured cells (80 C, 30 min)
Experimental: as §1
(§3) Table 7 depicts the assessment of the nature of the epitopes of CD22 sdAbs to determine if the epitopes for the sdAbs are continuous (linear) or non-continuous (conformational). […] The binding of each sdAb to native and denatured CD22 fragments was measured as OD₄₅₀, and the ratio of the binding to denatured CD22 to non-denatured CD22 was calculated, with the ratio ≥ 0.5 indicative linear (L), and the ratio < 0.5 indicative of conformational (C) epitopes.

[4] = biological target: T2, hCD22 fragment Bin 7, IVR7 (aa561-668), …; assay: yeast display cell ELISA, OD on denatured over non-denatured CD22 fragment
Experimental: as §1, §3

[5] = biological target: T1, hCD22 fragment Bin 6, IVR6 (aa476-575), …; assay: yeast display cell ELISA, native cells
Experimental: as §1, §3

[6] = biological target: T1, hCD22 fragment Bin 6, IVR6 (aa476-575), …; assay: yeast display cell ELISA, biotinylated sdAb 250 nM
Experimental: as §1, §2

[7] = biological target: T1, hCD22 fragment Bin 6, IVR6 (aa476-575), …; assay: yeast display cell ELISA, heat denatured cells (80 C, 30 min)
Experimental: as §1, §3

[8] = biological target: T1, hCD22 fragment Bin 6, IVR6 (aa476-575), …; assay: yeast display cell ELISA, OD on denatured over non-denatured CD22 fragment
Experimental: as §1, §3

[9] = biological target: T3, hCD22 fragment Bin 1, IVR1 (aa1-135), …; assay: yeast display cell ELISA, native cells
Experimental: as §1, §3

[10] = biological target: T4, hCD22 fragment Bin 4, IVR4 (aa303-405), …; assay: yeast display cell ELISA, native cells
Experimental: as §1, §3

Row | Binder | binding result [1] | OD450 [2] | Heat Inactivated CD22 OD [3] | CD22 Ratio (D/ND) [4] | Non denatured CD22 OD [5] | OD450 [6] | Heat Inactivated CD22 OD [7] | CD22 Ratio (D/ND) [8] | Non denatured CD22 OD [9] | Non denatured CD22 OD [10]
1 | B1 | no binding (tested: OD450 not above 0.25; sdAb 250 nM) | 0.75 OD450 | 0.32 OD450 | 0.091 | – | – | – | – | – | –
2 | B2 | – | 2.89 OD450 | 2.11 OD450 | 0.603 | – | – | – | – | – | –
3 | B3 | – | – | – | – | 3.5 OD450 | 2.97 OD450 | 3.5 OD450 | 1 | – | –
4 | B4 | – | – | – | – | 2.57 OD450 | 2.25 OD450 | 2.62 OD450 | 1.02 | 2.32 OD450 | –
5 | B5 | – | – | – | – | 0.453 OD450 | 0.433 OD450 | 0.272 OD450 | 0.6 | – | 1.23 OD450
6 | B6 | no binding (tested: OD450 not above 0.25; sdAb 250 nM) | 2.84 OD450 | 2.33 OD450 | 0.665 | – | – | – | – | – | –
7 | B7 | – | – | – | – | 2.98 OD450 | 1.38 OD450 | 2.04 OD450 | 0.684 | – | –
